Results on one protein are retold here after article PMC9318811, “PbUGT72AJ2-Mediated Glycosylation Plays an Important Role in Lignin Formation and Stone Cell Development in Pears (Pyrus bretschneideri)” (International Journal of Molecular Sciences, 2022).

Substrate in data set [1]: COc1cc(/C=C/CO)ccc1O
Kind of data set: HPLC of glucoside product, double reciprocal plot. Type of data set: biochemical, Pyrus x bretschneideri. The conditions noted are these: 2.5 mM UDP-glucose, 50 mM MgSO4, 200 mM KCl, 100 mM PBS pH 7.2–7.4, 35 °C, 0.1% β-mercaptoethanol, pH 7.0. The text has this: (§1) HPLC of glucoside product, double reciprocal plot on PbUGT72AJ2

Substrate in data set [2]: COc1cc(/C=C/CO)cc(OC)c1O
The experiment in a line: HPLC of glucoside product, double reciprocal plot. The conditions noted are these: 2.5 mM UDP-glucose, 50 mM MgSO4, 200 mM KCl, 100 mM PBS pH 7.2–7.4, 35 °C, 0.1% β-mercaptoethanol, pH 7.0. Type of data set: biochemical, Pyrus x bretschneideri.
Excerpt: as §1

B1: PbUGT72AJ2 (Pyrus x bretschneideri) (protein)
chain: MSSKPHAAILCSPGLGHLIPSLELAKRLVTHRNFTVTIFAIPSPTSKTESELLKAAATPKFFDIIELPPPDISGCVGPNVAVVTLLAVMMREVRPAFRSAILGMEYSLRPTVLIVDLFSTESLSIGDELGIPKYVYVASTAWLVALTVYVPVFDREMEGEYVDQTEPLRIPGCKPVQPDDVVDPMLDRTDQQYLEYVRIGTNFPKSDGILMNTWEDLEHKTIDALRDEGLLGRVAKVPIYPIGPLTRSVQSAGSTSTGLREEGLFNWLDKQPCESVIFVSLGSGGTVSFEQMTEMAWGLELSKQRFIWVVRPPAKSADAAYFTSGNRDDDPSTYLPKGFLTRTHDVGLVVHLWAPQVDILSHPSIGGFWSHCGWNSSLESITNEVPMIVWPLHAEQRINATMLTEELGVAVRSKVLPLKKVVDREEIKEMVRKIMVDKDGQAIRGRVKELKLSAAKAWSVGGSSYNAISQISSGNQRKC
Usually Km stands for the substrate concentration at which the rate is half of its maximum. A word on the Vmax: it is the top rate of the reaction or transport when substrate is in excess. The kcat is the maximal rate divided by the concentration of active sites. As usually defined, the kcat/Km is the turnover number divided by the Michaelis constant. B1: in data set [1], the Km amounted to 117.83 ± 7.94 µM, the maximal velocity (Vmax) was 4.23 µM/min/mg, the kcat is 0.55 ± 0.02 s⁻¹ and the kcat/Km was 4670 ± 130 M⁻¹ s⁻¹. In addition, in data set [2], the Km is 144.13 ± 22.31 µM, the Vmax was determined as 3.32 µM/min/mg, the kcat was determined as 0.44 ± 0.03 s⁻¹ and the kcat/Km was 3050 ± 250 M⁻¹ s⁻¹.
